The results in this text go back to patent publication US20240053325A1, “NOVEL SCREENING PLATFORM TO IDENTIFY IMMUNE MODULATORY AGENTS” (PRESIDENT AND FELLOWS OF HARVARD COLLEGE, priority 2020, published 2024).

The target of one assay is T1, IL-10R (Mus musculus, UniProt Q61190+Q61727, C4S).
T1 construct: expressed in transfected cells
Description: IL-10 reporter. It counts as cell-based. The conditions noted are these: incubated for 24 hours with different amounts. As for the experimental part: (§1) IL-10/IFN-γ/TNF-α reporters were incubated for 24 hours with different amounts of IL-10 (FIGS. 5A and 5B), IFN-γ (FIGS. 5C and 5D) or TNF-α (FIGS. 5E and 5F).
(§2) Furthermore, the systems and methods provided herein are applied to generate other cytokine/cytokine receptor reporter system (tTA fused onto one receptor subunit via a protease cleavage site, TEV fused to another receptor subunit, optimal linkers inserted between different proteins to ensure high signal-to-background ratio). The screening platform provided herein are used to identify immune modulatory agents including, but not limited to, small molecules and proteins that modulate cytokine signaling (FIGS. 5A-6F).

Assay [1] addresses IL-17RA/RC reporter (IL-17RA-tTA and IL-17RC-TEV co-expressed in reporter cells) (Mus musculus). Description: cell-based or functional assay.
Assay [2] deals with T2, IL-17RA/RC (Mus musculus, UniProt Q60943+Q8K4C2).
T2 construct: expressed in transfected cells
The experiment in a line: IL-17RA/RC reporter assay (GFP reporter cells). It counts as cell-based. The conditions noted are these: reporter cells incubated with different amounts for 24 hours. A general note: In a reporter assay the amount or activity of a reporter protein is the signal.

Assay [3] has as its target T3, IL-17RA/RC (Mus musculus, UniProt Q60943+Q8K4C2, F156E).
T3 construct: expressed in transfected cells
The experiment in a line: IL-17RA/RC reporter assay (GFP reporter cells). It counts as cell-based. The following applies: 24 h stimulation, IL-17A-F 100 ng/ml; for increase of percentage of GFP+ cells / GFP expression (reporter response): TNFa 5 ng/ml.

Assay [4] has as its target IL-17RA/RB reporter (IL-17RA-tTA and IL-17RB-TEV co-expressed in reporter cells) (Mus musculus). Description: cell-based or functional assay.
The target of a further assay is T4, IL-17RA/RB (Mus musculus, UniProt Q60943+Q9JIP3).
T4 construct: expressed in transfected cells
Description: IL-17RA/RB reporter assay (GFP reporter cells). It is filed as cell-based. The following applies: 24 h stimulation, IL-17A-F 100 ng/ml; for increase of percentage of GFP+ cells / GFP expression (reporter response): TNFa 5 ng/ml. How it is done: Doxycycline was used as a negative regulator of the GFP reporter. IL-17A-F: 100 ng/ml, TNFa: 5 ng/ml, doxycycline: 1 μg/ml.
Using a similar approach, the inventors have recently also successfully generated the IL-17RA/IL-17RB reporter line (FIG. 4). […] Since IL-17E plays a role in allergy and asthma, small molecules modulators that will be identified using this platform may create a new IP opportunity.

The target of another assay is T5, TNFαR1 (Homo sapiens, UniProt P19438).
T5 construct: expressed in transfected cells
Description: TNF-α reporter. It counts as cell-based. The following applies: incubated for 24 hours with different amounts. As for the experimental part: as §1, §2

A further assay has as its target T6, IFNγR (Mus musculus, UniProt P15261+Q63953).
T6 construct: expressed in transfected cells
The experiment in a line: IFN-γ reporter. It is filed as cell-based. The conditions noted are these: incubated for 24 hours with different amounts. How it is done:
as §1, §2

Consider “IL-10: cytokine, used to activate the IL-10 reporter”, for which the “dose dependent activation of reporter” value with IL-10R was “dose dependent activation”. In turn, IL-17A (ligand) registered a percentage of GFP^+ cells (24 h stimulation, 100 ng/ml) in assay [1] of 60%. Regarding “IL-17A: IL-17 family cytokine; ligand of the IL-17RA/IL-17RC heterodimer”, the “dose-dependent activation of the GFP reporter” value (from here on “dose-dependent activation”) in the assay with IL-17RA/RC [2] is on record as “activate the GFP reporter system in a dose-dependent manner”; in the assay with IL-17RA/RC [2] (listed as IL-17a), “activated in a dose-dependent manner”. Also, the “increase of percentage of GFP+ cells / GFP expression (reporter response)” value in the assay with IL-17RA/RC [3] is recorded as “responds highly selectively”. Moreover, the “percentage of GFP+ cells” value in the assay with IL-17RA/RC [3] (increased from 1%) came to 60%. Turning to IL-17E (ligand), in assay [4], the percentage of GFP^+ cells (24 h stimulation, 100 ng/ml) came out at 80%.

As to IL-17F: IL-17 family cytokine, the “dose-dependent activation” value is given as “activate the GFP reporter system in a dose-dependent manner” with IL-17RA/RC [2] and “to a lesser degree” with IL-17RA/RC [2] (listed as IL-17f). Consider TNFa, for which the “increase of percentage of GFP+ cells / GFP expression (reporter response)” value on IL-17RA/RC [3] and on IL-17RA/RB was “failed to increase GFP expression” in each case. Besides, the “dose dependent activation of reporter” value on TNFαR1 is “dose dependent activation”.

B1: IL-17E: IL-17 family cytokine; the natural ligand of IL-17RA/RB (protein, UniProt Q9H293 33-177, looked up)
Interleukin-25: YSHWPSCCPSKGQDTSEELLRWSTVPVPPLEPARPNRHPESCRASEDGPLNSRAISPWRYELDRDLNRLPQDLYHARCLCPHCVSLQTGSHMDPRGNSELLYHNQTVFYRRPCHGEKGTHKGYCLERRLYRVSLACVCVRPRVMG
With B1, the “increase of percentage of GFP+ cells / GFP expression (reporter response)” value with IL-17RA/RB is on record as “responds highly”. In the assay with IL-17RA/RB (increased from 1%), the “percentage of GFP+ cells” value is on record as 80%.

B2: IL-17C: IL-17 family cytokine (protein, UniProt Q9P0M4 19-197, looked up)
Interleukin-17C: HHDPSLRGHPHSHGTPHCYSAEELPLGQAPPHLLARGAKWGQALPVALVSSLEAASHRGRHERPSATTQCPVLRPEEVLEADTHQRSISPWRYRVDTDEDRYPQKLAFAECLCRGCIDARTGRETAALNSVRLLQSLLVLRRRPCSRDGSGLPTPGAFAFHTEFIHVPVGCTCVLPRSV
For B2, in the assay with IL-17RA/RC [2], the “dose-dependent activation” value is listed as “not”.

B3: IFN-γ: dimerized soluble cytokine (interferon) that activates interferon gamma receptors (protein, listed as Homo sapiens)
chain: MKYTSYILAFQLCIVLGSLGCYCQDPYVKEAENLKKYFNAGHSDVADNGTLFLGILKNWKEESDRKIMQSQIVSFYFKLFKNFKDDQSIQKSVETIKEDMNVKFFNSNKKKRDDFEKLTNYSVTDLNVQRKAIHELIQVMAELSPAAKTGKRKRSQMLFRGRRASQ
Regarding B3, in the assay with IFNγR, the “dose dependent activation of reporter” value is “dose dependent activation”.
